A short description of the data set: soluble on expression in E. coli; label from the status in PepcDB or PDB records.
Turning to “GPGSMLRSLFGRPSLAVLNNYGHMARPASPLLCSQRGVFADRVRAGMILKVDKRYYRVLANTRSQKGQNAASFNIKLTEVGTGRKKEVTAGHGHDFAEARAERVRLLFSGFDDDDMACFVYPEHSSDAGKEVNIPGDSLPELQQKFLCCGMPVDVLHIMPDDDESPNEKDIWSEVVMPSNYTYTVEKLTLKGMYKMAAFVECDGIIGVNDSVQVNDKVKVVIKPDGTAAFGGRAT”, the “soluble on expression in E. coli” value is “not soluble”. As for “MGKGAMNRRDFLKVGGMSTLALTLGSTGLFSLEGQAKNSSNPTSGFGGFGPLVKDPNGILDLPKGFKYKILSRTGDRMTNGDLVPSMHDGMAAFQGPRNTTILVRNHENGTNADYPVNGKNPWSKGAAGGTTALVVGPNREVIREYVTNSGNIRNCAGGPSTWGTWLTCEETRDMGHGFVFEVNPHEPENEMSKTPIRDMGYFSHEACNVDPSTGIWYLTEDNSPSFFYRFTPHDRSQTLGSLQKGGILEAAAIDELPHNQASNFTSGQKIGIVWKKVNPERAKEDARDLGCIRFSRLEGSWFAGGAFWFDDTNAGEKNLGRIYRYFPATNTLELFYESSDHNDLEMPDNITITPWGDLWIAEDGNIGRDRMIGLTPEGNVYTFAENRLNNSEFAGPAFSPDGKTFYLNMQTPGITFAIWGPFARRNAARQVAMSHAAPPPGYGPQVSDKLADYAERHGMSPLAAAALERHGFIVLEHHHHHH”, the “soluble on expression in E. coli” value is “not soluble”.

As to “QKFIARNRAPRVQIEYDVELYGAEKKVQLPFVMGVMADLAGKPAEPQAAVADRKFLEIDVDNFDARLKAMKPRVAFNVPNVLTGEGNLSLDITFESMDDFSPAAVARKVDSLNKLLEARTQLANLLTYMDGKTGAEEMIMKAIKDPALLQALASAPKPK”, the “soluble on expression in E. coli” value is “not soluble”.

For the sequence “MISDIRKDAEVRMEKCVEAFKTQISKVRTGRASPSLLDGIVVEYYGTPTPLRQLASVTVEDSRTLKINVFDRSMGPAVEKAIMASDLGLNPSSAGTDIRVPLPPLTEERRKDLTKIVRGEAEQARVAVRNVRRDANDKVKALLKDKAISEDDDRRSQEEVQKMTDAAIKKVDAALADKEAELMQF”, the “soluble on expression in E. coli” value is given as “not soluble”. The same measure for “MIAQQFNRARHILRHNLVRPFYQPKFYLESGKLAGFEALLRWYDEDNQIQLPKLIINAFEDYSLASRLSEKMQLNIFKDMASWINQGLQLVPVSINAAPVEFLKDNYAELLLERLNQFEIPYHLIEIEITEHLLDDQGKNFISRALAKLKQNGIRIALDDFGTGHSSLTRLANLPVDCLKIDCDFVQRMEQEKFISALVQSVILMSNNLGIDVVAEGIESQEQLELLKQQGCEVGQGFLFSQA”: “not soluble”; for “MTTTTTFKGVDPNSRNSSRVLRPPGGGSNFSLGFDEPTEQPVRKNKMASNIFGTPEENQASWAKSAGAKSSGGREDLESSGLQRRNSSEASSGDFLDLKGEGDIHENVDTDLPGSLGQSEEKPVPAAPVPSPVAPAPVPSRRNPPGGKSSLVLG”: “soluble”.

Regarding “MHRHVVTKVLPYTPDQLFELVGDVDAYPKFVPWITGMRTWNGRVDGAVSTVDAEAQVGFSFLREKFATRKRRDKDARSIDVSLLYGPFKRLNNGWRFMPEGDATRVEFVIEFAFKSALLDAMLAANVDRAAGKLIACFEARAQQLHGALEHHHHHH”, the “soluble on expression in E. coli” value was “soluble”. In the case of “SMMDLFETGSYFFYLDGENVTLQPLEVAEGSPLYPGSDGTLSPCQDQMPPEAGSDSSGEEHVLAPPGLQPPHCPGQCLIWACKTCKRKSAPTDRRKAATLRERRRLKKINEAFEALKRRTVANPNQRLPKVEILRSAISYIERLQDLLHRLDQQEKMQELGVDPFSYRPKQENLEGADFLRTCSSQWPSVSDHSRGLVITAKEGGASIDSSASSSLRCLSSIVDSISSEERKLPCVEEVVEK”, the “soluble on expression in E. coli” value is given as “soluble”. In the case of “MNKAINIKKTAPLEVLHSELPYTQDPTALFHALCAGRSDCLLLESAEIDSKQNLKSLLLVDAAVRIVCEGHQVTYHALSANGQALLNIIHSNLTDRIPCKVEKAKLTLTFSTPCDTLDEDSRLREASSFDALRLVQHSFDLTDHGKFALFLGGLFAYDLVANFEPLGEAPADNQCPDYVFYVAETLMVIDHQRETCQLQATQFQPGDALHSQLKSRMREIRAQVNQKLPLPSAQSLSDVEVTTNISDAAFCDIVRDLKQYVVKGDVFQVVPSRRFRLPCPSPLAAYQRLKQSNPSPYMFYMQDERFTLFGASPESALKYEMHTNQVEIYPIAGTRRRGKRADGSIDFDLDSRIELELRTDKKENAEHMMLVDLARNDVARISQAGTRHVADLLQVDRYSHVMHLVSRVVGQLREDLDALHAYQACMNMGTLTGAPKIRAMQLIRDVEQARRGSYGGAVGYLTGEGDLDTCIVIRSAYVENGIAQVQAGAGVVYDSDPQAEADETRGKAQAVISAILYAHQGKE”, the “soluble on expression in E. coli” value is “not soluble”. With “MGSDKIHHHHHHMKKIVVLGGGPGGLVAAYNLARLLRGKAEITLIDKTGYHLFPPSLLWVMVGQREPEDIMRPLSKLEKHGIKVVTASVESIDPDNNKVATSGGEFEYDYLVVSLGSTPRPELMKADDTVCSPWTVEGALDCRRKLAGFKSGRIIVGAWSWPYKCPPAPFETAFLVKYLLEQRGGDAQVTVVHFWKKPMEPFGPTMAEAFQSFLDMYGVGFKGGVEPMEARGGRLVASSGEEIEYDLAVFAPPHEPPKPVAESPLGDESLGGYMRVDKRTLRSPRYGNVFGVGDIIAPSLGLGMAGIFAHFQAEYVASQIADEILGTYMGEHYNMSGVCVMDLGYAGAAVYCDFSKKVMGEAEYPDCVILGGMRAFRPLKYAFERYWLEKWFT”, the “soluble on expression in E. coli” value is recorded as “not soluble”. As to “MTRLSSGAKLNHPESSVCSPVYSWSTCIRKTSPVLFSSTIFALRRMTAPSAPCAQAPQLTRRWAKIVVENRTGSHFKIQVLHEYTGEQTNDSGYIDFKPDDRITVFEKIYYNTGFFTTGVDNWKVHGTKLIQVETEGTIARNIFGKFFVDGLPYSTGHGAFAKWKKHTLRADDDGQETVIKVFQTEVQFISPSGRSVTTFNTLGENILPFSQNPQKQ”, the “soluble on expression in E. coli” value is recorded as “not soluble”. For the sequence “MSSPTATKYDVFLSFRGLDTRRNFISFLYKELVRRKIRTFKDDKELENGRRISPELKRAIEESKFAVVVVSVNYAASPWCLDELVKIMDFENKGSITVMPIFYGVDPCHLRRQIGDVAEQFKKHEAREEDHEKVASWRRALTSLASISGECSLKWEDEANLVDEIADKISKNLMTVTTISNGRDLVGIDTHMKALNKKLDLNSNKSLRVVGIWARGYNGRSALAKYVYQDICHWLKVGWLKVYQDIKTASKLYVLTRWLKVAHLLHRSHHSFKTE”, the “soluble on expression in E. coli” value is recorded as “soluble”.

As to “MGSDKIHHHHHHMLQLSEFEPEVLYAFPFRNEHPGTYVYHQHDFLELSIMLEGYSDYNVEGQWRRVVAGQALLFNPGIHHQETQPPHTQSLQLHIGFRHIALPGQVPNHLPFKDALISLDDYRAEFMANAQRIVAESQRPTAFGHALLIQAMVIEQLCWLLRSLPENSVSNDYTELHQGNVSRDQQALVNAATYYLDVHYNEDLTLGTVAASLHVSAAYLSRTFKAIQGETPISYLTRLRMQRAKQLLMQEAITVRQVAHAVGYQDPYYFSKVFKRYFGAAPTLIER”, the “soluble on expression in E. coli” value is reported as “not soluble”. Consider “MQPELTKTPANFPLSPLGAVVILGDIPNPELLAIPLAPTPSTMFGPRGACLVAETGALWVSDTGHHRLLGWRKLPTTDSQPADWVIGQPDFYHEGQNAKGTPGRTTVSVPTGICVCGGGLAIADAWNHRVLIWHKIPEDSNVPADLVLGQRNFSENEPNRGKQSPDANTMHWPYGVAYHQGKLFVADTGNRRLLIWQQLPTENGQPADIVLGQPDMISRNENGGGSPTAGSMRWCHDIAFWDDNLVVTDAGNNRVMIWQGIPTENNAPCAVVLGQKSFDLVEMNQGVYFPSAGSLSMPYGVGATEDWLMVADTANSRLLGWRKRESILLLQGAIADGIIGQNSFQSKSENRHFGLPTRDSLNWCYGVKVCGSTAVISDSGNNRVLLWRFLLEHHHHHH”, for which the “soluble on expression in E. coli” value is given as “not soluble”. Regarding “MAHHHHHHMGTLEAQTQGPGSMFKLTGRKALVTGATGGIGEAIARCFHAQGAIVGLHGTREDKLKEIAADLGKDVFVFSANLSDRKSIKQLAEVAEREMEGIDILVNNAGITRDGLFVRMQDQDWDDVLAVNLTAASTLTRELIHSMMRRRYGRIINITSIVGVVGNPGQTNYCAAKAGLIGFSKALAQEIASRNITVNCIAPGFIKSAMTDKLNEKQKEAIMAMIPMKRMGIGEEIAFATVYLASDEAAYLTGQTLHINGGMAMI”, the “soluble on expression in E. coli” value is “soluble”.

Consider “MATKNEELPIIDLAATEGYIVDDTDEDDPVLLAPDGTPIDTWRENYPYEERMTRDEYEKTKRALQIELLKWQNWTKDTGQRHIILFEGRDAAGKGGTIKRFNEHLNPRGARTVALEKPSPRESTSWYFQRYIEHFPCAGEIVFFDRSWYNRSGVERVMGFCTESQHAEFLREVPMLENMILGSGISLTKFWFSVTQKEQRTRFAIRQVDPVRQWKLSPMDLASLDRWDDYTRAKEEQFRYTDTDEAPWITIRSNDKKRARINAMRYILSKFEYSNKDHDLVGEPDPLIVMRGRDRIGD”, for which the “soluble on expression in E. coli” value is listed as “not soluble”. Take “MQDLSFSTIENHLGPAKDRFFGDGFKHVEYSARHVNLTESEANASISLSYPANWSKKNDSGELIPHLSSIDALTISINLSQDILLNRFKSIDHCWVRRISIRAGKKPEEDLRNINAKITKESQGLDSQGDTNLIFGGNVGTMTVQLEFIIPAAHEVDTIKDSTEKNCYSLHFKNRTQFIDDIIFYSPLNAISKLFVANDNEPHFLPGGIEANYPNIINPVDSLVSHAQIAQALLYKLDGLTRGESNTLWMRNLNIIAENPAKRRAATRLLVTELKRANIVSLKGENWRVAEVAGHMNGITFSSSVAHLLPL”: the “soluble on expression in E. coli” value is reported as “not soluble”. Turning to “AITGATGHLGQQIVAAMRPLVATTELYLGVHTLSKAQVYQQQGLHIAAIDYQQPEQLRAFFQDSDVLIYIPSKSHDSYSRVQEFENVLAAVQQANVHHFLVMGFIADQVNNPFALSAFYGYVPRRLAGSDINYTIVRNALYADPLVPYLPELIERHNVVYPMADQALSFISQADSAAAFAKVATTPDLLQRGRI”, the “soluble on expression in E. coli” value is “not soluble”. With “MPFHLALGLSNCEQIYEPGGTIEGYVTFDLRESVKVKAIRISAEGLATTKWLLSESSKSSHGRSREVSYSAKVTYLDEEQMVWKPSEGHSKSSVFPGIHVYPFKFQIPIGVPPSFEGDHGNIRYHMKATVERPWKTNRSVTRYLTILPPKDLNKEVLASEETSSWKSKKIRIPKKGYVPGETISIETNIDNMSSRPILKTECYLIQQCRFLAYRYGISGPTDGRRASSLSENDRYLSRKRDEIKIVSVIHEMHIEPRTEHKAKMRLKIPCTCPTFDSTLIHVEYFVVVKLHVKCRMRNTVKAECPIIIGSKPLADEHVDPRTPTYQEVATFSALTHRSMMSVDEKLTPKYVYYPKYGKSRDDEADEPPSLTDLQLPPIDSLSDDD”, the “soluble on expression in E. coli” value is reported as “not soluble”. “MKNADKNFEKEKYIDSLRDYLAVLDKVDDESLKAEICYKVSQIYHYLQKDDPQNALKYAQMSMDLHAKHGEDDLTVLDLINIASILMDSGDKKGALQKLDEAIQKAKDMGDDEIQLIAMSSKASMIAEDNREEALKLYQEVMRKSQEIGDIEDYFDAVQGIVNMVREEDEHRAFEMIMKAIEELENYISGIKSKKEKKDVADSFSYLYDTASDIAMSIGDVDQAMEIAKRLQKIVS”: the “soluble on expression in E. coli” value was “not soluble”.

The record behind these values is the DeepSol protein solubility set.
